The source of these data is PMC9019556, “Molecular interactions of STAC proteins with skeletal muscle dihydropyridine receptor and excitation‐contraction coupling” (Protein Science : A Publication of the Protein Society, 2022).

In the assay the target is T1, full-length II–III loop of the skeletal muscle dihydropyridine receptor α1S subunit (UniProt P07293 665-785).
T1 construct: cytosolic II–III loop of the DHPR α1S subunit (skeletal muscle voltage-dependent L-type calcium channel), 115 amino acids; The methods' sentence 'genes for human STAC2SH3s and the DHPR II–III loop' leaves open whether the loop is human; Used unlabelled (SPR, immobilised) and 15N-labelled (NMR); also called DHPR II–III loop; full II–III loop
T1 sequence (looked up): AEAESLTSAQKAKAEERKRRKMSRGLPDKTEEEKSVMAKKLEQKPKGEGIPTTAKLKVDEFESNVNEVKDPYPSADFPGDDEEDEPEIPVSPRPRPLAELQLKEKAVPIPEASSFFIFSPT
The assay is described as follows: SPR; full DHPR II–III loop immobilised on a CM5 chip by amine coupling; STAC proteins flowed over at 30 μL/min for 120 s; Biacore 8K, 20°C; 10 mM HEPES-HCl pH 7.4, 150 mM NaCl, 0.05% Tween-20, 3 mM EDTA; affinity curve. The settings on record: both partners purified.

B1: tandem SH3 domains of STAC3 (SH3 and cysteine-rich domain-containing protein 3) (domain or fragment, human)
chain: GFQQSHYFVALYRFKALEKDDLDFPPGEKITVIDDSNEEWWRGKIGEKVGFFPPNFIIRVRAGERVHRVTRSFVGNREIGQITLKKDQIVVQKGDEAGGYVKVYTGRKVGLFPTDFLEEI
notes: human STAC3, tandem SH3 domains (SH3_1 and SH3_2) at the C-terminal end; Used unlabelled (SPR, titrant in NMR) and 15N-labelled (NMR titration with the C3 peptide); also called STAC3SH3s
For B1, the equilibrium dissociation constant (Kd) was found to be 21 µM. In other words, the double-digit micromolar range.

B2: tandem SH3 domains of STAC2 (domain or fragment, human)
chain: SYVALYKFLPQENNDLALQPGDRIMLVDDSNEDWWKGKIGDRVGFFPANFVQRVRPGENVWRCCQPFSGNKEQGYMSLKENQICVGVGRSKDADGFIRVSSGKKRGLVPVDALTEI
notes: human STAC2, tandem SH3 domains (SH3_1 and SH3_2) at the C-terminal end; Used unlabelled (SPR) and 15N-labelled (NMR); also called STAC2SH3s
B2 showed a dissociation constant (Kd) of 22.6 µM.

The term Kd denotes the free concentration of one partner at which half of the binding sites on the other are occupied at equilibrium, for simple one-to-one binding. High values mean lower affinity, low ones higher affinity.
